# Reference: the DeepSol protein solubility set
# Test: soluble on expression in E. coli; label from the status in PepcDB or PDB records
row,Sequence,soluble on expression in E. coli
1,MALKATIYKATVNVADLDRNQFLDASLTLARHPSETQERMMLRLLAWLKYADERLQFTRGLCADDEPEAWLRNDHLGIDLWIELGLPDERRIKKACTQAAEVALFTYNSRAAQIWWQQNQSKCAQFANLSVWYLDDEQLAKVSAFADRTMTL,not soluble
2,MSLLRIRQPKSETVRQFLQTQASRDFSYPMVGATLATPPSEYQVDHTRVRLGHGEESLAQGRIALQKWTQFQLGWVTTFPPALPIQAGEMVAIVARAGGFWWLNACRIVCTIEEPKQFGFAYGTLPAHAESGEERFLIEMDDAGDVWYDILAFSRPNRVSAKLAYPYMRHLQKRFARESAAAMRQAIRPEGHHHHHH,soluble
3,MHGLNKDIIFPLQIFALSNNVLYNFPEQGVVPVLYVIYAQDKADSLEKRLSVRPAHLARLQLLHDEGRLLTAGPMPAVDSNDPGAAGFTGSTVIAEFESLEAAQAWADADPYVAAGVYEHVSVKPFKKVF,not soluble
4,MKIAIAGAGAMGSRFGLMLKQGGNDVLLIDGWQEHINAIKENGLKANYNGEEITVKVSIVNQNEVPTGEQFDLIILFTKAMQLEKMLQDVKPLIADHTEVLCLLNGIGHEDVIEKFVPMEKIFIGNTMWTAGLEGPGKAKLFGSGSVELQNLGIGQEESAKKLAETLSASGLNAKYSDNIHYSIYRKACVNGTMNGLCTILDVNMAGLGATKPAHDMVVTIVNEFAAVAAKENVNLDIPEVIEHVETCFDPTTIGMHFPSMHQDLIKNNRLTEIDYINGAISRKGKKYGVVTPYCDFLTQLVHSKEEILGAK,not soluble
5,MNGSADAGPRPRKYVFITGGVVSSLGKGILTSSLGALLRARGYRVTAIKIDPYVNVDAGTMRPYEHGEVFVTADGAETDLDIGHYERFLDMDLSRGNNLTTGQVYLSVIQKERRGEYLSQTVQVIPHITDEIKERIRKVAEEQKAEIVVVEVGGTVGDIESLPFLEAIRQFRFDEGEGNTLYLHLTLVPYLETSEEFKTKPTQHSVATLRGVGIQPDILVLRSARPVPEEVRRKVALFTNVRPGHVFSSPTVEHLYEVPLLLEEQGLGRAVERALGLEAVIPNLSFWQEAVRVLKHPERTVKIAIAGKYVKMPDAYLSLLEALRHAGIKNRARVEVKWVDAESLEAADLDEAFRDVSGILVPGGFGVRGIEGKVRAAQYARERKIPYLGICLGLQIAVIEFARNVAGLKGANSTEFDPHTPHPVIDLMPEQLEVEGLGGTMRLGDWPMRIKPGTLLHRLYGKEEVLERHRHRYEVNPLYVDGLERAGLVVSATTPGMRGRGAGLVEAIELKDHPFFLGLQSHPEFKSRPMRPSPPFVGFVEAALAYQERA,soluble
6,MSEVTNELMKTIGGLAKNPNFYLMMGPHHRGQRGHHRGQARLMHLLEKYDGLSVGEIAEILDVRPSSVTSLVDKLEENDFVERIVDEIDKRITLIKLTKKGHAFLKNKKDEADDLSEEIFARLSEEEKDTLLRLLKRVSENLNDVDFGDYISKMVNDSIGRHFKFDDGDIHINI,not soluble
7,MYLIEPIRNGKRITDGAVALAMQVYVQENLFLDDDILFPYYCDPKVEIGKFQNAVVETNQEYLKEHHIPVVRRDTGGGAVYVDSGAVNICYLINDNGIFGDFKRTYQPAIEALHHLGATEVEMSGRNDLVIDGKKVSGAAMTIANGRVYGGYSLLLDVDFEAMEKALKPNRKKIESKGIRSVRSRVGNIREHLAPQYQGITIEEFKDLMVCQLLQIETISQAKRYDLTEKDWQQIDALTERKYHNWEWNYGNAPQYRYHRDGRFTGGTVDIHLDIKKGYIAACRIYGDFFGKADIAELEGHLIGTRMEKEDVLATLNAIDLAPYLGAITAEELGDLIFS,soluble
8,SSKEAFDELSVLSAIYCEQGEFEVLEESPEKGVVFRVHTLIDNNEKTPLDIIFHISPEYPNTPPDISISSNHLSRRQCHDLRRSLLDTAQSLPAEPMVHGLMLWLQENFSDLIKTSSCHSAEVRPETTEETWTALLHLDHMRSKAKYIKLIEKWTLELRLTGRLFTGKLILILLQGTKENIKQYIHLLKSVKVDVDSSGKRCKEKMMSVLCEIPKPEDKIMMTTFEVKDILSLDDLRREFDLIGLNELYHQFVSSLT,soluble
